B1: ZC3H15 (parent)
chain: RKADFKAGKALVISGREVFEFRPE
B2: HESX1 (parent)
chain: ENKPSTCSFSIERILGLDQKKDCV

Variants of: B1
Experiment: protein stability index of a GFP-peptide fusion (GPS, HEK-293T) (PSI 1-6); higher = more stable
Settings: c terminus: a fixed tail appended
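Also: lentivirally expressed fusions sorted by FACS into six bins by GFP to DsRed ratio, PSI derived from sequencing read proportions per bin multiplied by bin number.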

Compared with RKADFKAGKALVISGREVFEFLPE [R22L], RKADFKAGKALVISGREVFEFVPE [R22V] is higher in protein stability index: 2.35 for the first, 2.78 for the second.

Compared with RKADFKAGKALVISGREVFEFNPE [R22N], RKADFKAGKALVISGREVFEFTPE [R22T] is lower in protein stability index: 3.07 for the first, 3.03 for the second.

First: RKADFKAGKALVISGREVFEFWPE [R22W]
Second: RKADFKAGKALVISGREVFEFKPE [R22K]
The protein stability index of the first is lower: 2.39 for the first, 3.24 for the second.

Going from RKADFKAGKALVISGREVFEFYPE [R22Y] to RKADFKAGKALVISGREVFEFQPE [R22Q], the protein stability index rises from 2.84 to 3.83.

First: RKADFKAGKALVISGREVFEFMPE [R22M]
Second: RKADFKAGKALVISGREVFEFIPE [R22I]
The protein stability index of the first is higher: 3.54 for the first, 2.81 for the second.

First: RKADFKAGKALVISGREVFEFSPE [R22S]
Second: RKADFKAGKALVISGREVFEFPPE [R22P]
The protein stability index of the first is higher: 3.29 for the first, 3.25 for the second.

Going from RKADFKAGKALVISGREVFEFRPT [E24T] to RKADFKAGKALVISGREVFEFRPH [E24H], the protein stability index falls from 2.52 to 2.18.

First: RKADFKAGKALVISGREVFEFRPC [E24C]
Second: RKADFKAGKALVISGREVFEFRPN [E24N]
The protein stability index of the first is lower: 2.22 for the first, 2.84 for the second.

Going from RKADFKAGKALVISGREVFEFRPQ [E24Q] to RKADFKAGKALVISGREVFEFRPW [E24W], the protein stability index falls from 2.84 to 1.84.

Going from RKADFKAGKALVISGREVFEFRPI [E24I] to RKADFKAGKALVISGREVFEFRPM [E24M], the protein stability index rises from 1.94 to 2.

First: RKADFKAGKALVISGREVFEFRPS [E24S]
Second: RKADFKAGKALVISGREVFEFRPG [E24G]
The protein stability index of the first is higher: 2.78 for the first, 2.12 for the second.

Going from RKADFKAGKALVISGREVFEFRPD [E24D] to RKADFKAGKALVISGREVFEFRPA [E24A], the protein stability index falls from 3.11 to 2.69.

First: RKADFKAGKALVISGREVFEFRPL [E24L]
Second: RKADFKAGKALVISGREVFEFRPV [E24V]
The protein stability index of the first is lower: 1.9 for the first, 2 for the second.

Compared with RKADFKAGKALVISGREVFEFRPY [E24Y], RKADFKAGKALVISGREVFEFRPF [E24F] is lower in protein stability index: 2.17 for the first, 1.85 for the second.

First: RKADFKAGKALVISGREVFEFRPP [E24P]
Second: RKADFKAGKALVISGREVFEFRPR [E24R]
The protein stability index of the first is higher: 2.44 for the first, 2.43 for the second.

Going from RKADFKAGKALVISGREVFEFRPK [E24K] to RKADFKAGKALVISGREVFEFRIE [P23I], the protein stability index falls from 2.31 to 1.35.

First: RKADFKAGKALVISGREVFEFRLE [P23L]
Second: RKADFKAGKALVISGREVFEFRGE [P23G]
The protein stability index of the first is lower: 1.61 for the first, 3.18 for the second.

Compared with RKADFKAGKALVISGREVFEFRYE [P23Y], RKADFKAGKALVISGREVFEFREE [P23E] is higher in protein stability index: 1.9 for the first, 3.38 for the second.

Going from RKADFKAGKALVISGREVFEFRME [P23M] to RKADFKAGKALVISGREVFEFRSE [P23S], the protein stability index rises from 2.09 to 3.44.

First: RKADFKAGKALVISGREVFEFRQE [P23Q]
Second: RKADFKAGKALVISGREVFEFRNE [P23N]
The protein stability index of the first is lower: 3.31 for the first, 3.53 for the second.

Going from RKADFKAGKALVISGREVFEFRHE [P23H] to RKADFKAGKALVISGREVFEFRFE [P23F], the protein stability index falls from 2.62 to 2.27.

First: RKADFKAGKALVISGREVFEFRRE [P23R]
Second: RKADFKAGKALVISGREVFEFRCE [P23C]
The protein stability index of the first is higher: 2.73 for the first, 2.42 for the second.

Going from RKADFKAGKALVISGREVFEFRKE [P23K] to RKADFKAGKALVISGREVFEFRTE [P23T], the protein stability index falls from 3.35 to 3.17.

Compared with RKADFKAGKALVISGREVFEFRVE [P23V], RKADFKAGKALVISGREVFEFRDE [P23D] is higher in protein stability index: 1.94 for the first, 3.82 for the second.

In the case of RKADFKAGKALVISGREVFEFRWE [P23W], the protein stability index is reported as 1.24.

Variants of: B2
Experiment: as above
Settings: c terminus: a fixed tail appended

Compared with ENKPSTCDFSIERILGLDQKKDCV [S8D], ENKPSTCEFSIERILGLDQKKDCV [S8E] is higher in protein stability index: 3.88 for the first, 4.18 for the second.

Compared with ENKPSTCGFSIERILGLDQKKDCV [S8G], ENKPSTCFFSIERILGLDQKKDCV [S8F] is higher in protein stability index: 2.51 for the first, 3.04 for the second.

First: ENKPSTCHFSIERILGLDQKKDCV [S8H]
Second: ENKPSTCCFSIERILGLDQKKDCV [S8C]
The protein stability index of the first is lower: 2.7 for the first, 4.28 for the second.

Compared with ENKPSTCAFSIERILGLDQKKDCV [S8A], ENPPSTCSFSIERILGLDQKKDCV [K3P] is lower in protein stability index: 3.46 for the first, 3.17 for the second.

Compared with ENDPSTCSFSIERILGLDQKKDCV [K3D], ENAPSTCSFSIERILGLDQKKDCV [K3A] is lower in protein stability index: 3.66 for the first, 3.59 for the second.

Compared with ENWPSTCSFSIERILGLDQKKDCV [K3W], ENNPSTCSFSIERILGLDQKKDCV [K3N] is higher in protein stability index: 2.93 for the first, 3.04 for the second.

Going from ENIPSTCSFSIERILGLDQKKDCV [K3I] to ENVPSTCSFSIERILGLDQKKDCV [K3V], the protein stability index falls from 2.84 to 2.71.

First: ENGPSTCSFSIERILGLDQKKDCV [K3G]
Second: ENHPSTCSFSIERILGLDQKKDCV [K3H]
The protein stability index of the first is lower: 3.1 for the first, 3.42 for the second.

Going from ENTPSTCSFSIERILGLDQKKDCV [K3T] to ENQPSTCSFSIERILGLDQKKDCV [K3Q], the protein stability index rises from 2.53 to 3.41.

Compared with ENLPSTCSFSIERILGLDQKKDCV [K3L], ENMPSTCSFSIERILGLDQKKDCV [K3M] is higher in protein stability index: 2.35 for the first, 2.92 for the second.

Going from ENEPSTCSFSIERILGLDQKKDCV [K3E] to ENYPSTCSFSIERILGLDQKKDCV [K3Y], the protein stability index falls from 3.85 to 2.83.

First: ENSPSTCSFSIERILGLDQKKDCV [K3S]
Second: ENRPSTCSFSIERILGLDQKKDCV [K3R]
The protein stability index of the first is higher: 3.84 for the first, 2.58 for the second.

Going from ENFPSTCSFSIERILGLDQKKDCV [K3F] to ENCPSTCSFSIERILGLDQKKDCV [K3C], the protein stability index rises from 2.16 to 2.78.

Compared with SNKPSTCSFSIERILGLDQKKDCV [E1S], VNKPSTCSFSIERILGLDQKKDCV [E1V] is lower in protein stability index: 2.37 for the first, 2.32 for the second.

Compared with DNKPSTCSFSIERILGLDQKKDCV [E1D], WNKPSTCSFSIERILGLDQKKDCV [E1W] is lower in protein stability index: 3.29 for the first, 2.37 for the second.

Compared with GNKPSTCSFSIERILGLDQKKDCV [E1G], QNKPSTCSFSIERILGLDQKKDCV [E1Q] is lower in protein stability index: 2.32 for the first, 2.28 for the second.

Going from YNKPSTCSFSIERILGLDQKKDCV [E1Y] to CNKPSTCSFSIERILGLDQKKDCV [E1C], the protein stability index rises from 1.95 to 2.27.

Going from TNKPSTCSFSIERILGLDQKKDCV [E1T] to RNKPSTCSFSIERILGLDQKKDCV [E1R], the protein stability index falls from 2.85 to 2.79.

Going from KNKPSTCSFSIERILGLDQKKDCV [E1K] to MNKPSTCSFSIERILGLDQKKDCV [E1M], the protein stability index rises from 1.68 to 2.45.

Compared with HNKPSTCSFSIERILGLDQKKDCV [E1H], PNKPSTCSFSIERILGLDQKKDCV [E1P] is higher in protein stability index: 2.73 for the first, 2.79 for the second.

Going from LNKPSTCSFSIERILGLDQKKDCV [E1L] to NNKPSTCSFSIERILGLDQKKDCV [E1N], the protein stability index rises from 2.13 to 2.77.

Compared with FNKPSTCSFSIERILGLDQKKDCV [E1F], INKPSTCSFSIERILGLDQKKDCV [E1I] is higher in protein stability index: 1.92 for the first, 2.68 for the second.

Work on ANKPSTCSFSIERILGLDQKKDCV [E1A] yielded a protein stability index of 2.61.

From the supplement of paper PMC10567573
